Measurements: PMC6974248, ““Yellow” laccase from Sclerotinia sclerotiorum is a blue laccase that enhances its substrate affinity by forming a reversible tyrosyl-product adduct” (PLoS ONE, 2020)

Columns and labels:
blue laccase = target: T1, blue laccase (Sclerotinia sclerotiorum, UniProt A7EM18); assay: UV-vis after desalting; format: binding; details: covalent, adduct of the radical product formed on turnover, site not identified; 25 mM MES pH 6.3
T1 construct: gene SS1G_06365; native, secreted, purified from culture medium; ~66 kDa glycoprotein; blue form (phenolics removed by preparative native PAGE or low-coloured medium)
T1 sequence (A7EM18 28-577): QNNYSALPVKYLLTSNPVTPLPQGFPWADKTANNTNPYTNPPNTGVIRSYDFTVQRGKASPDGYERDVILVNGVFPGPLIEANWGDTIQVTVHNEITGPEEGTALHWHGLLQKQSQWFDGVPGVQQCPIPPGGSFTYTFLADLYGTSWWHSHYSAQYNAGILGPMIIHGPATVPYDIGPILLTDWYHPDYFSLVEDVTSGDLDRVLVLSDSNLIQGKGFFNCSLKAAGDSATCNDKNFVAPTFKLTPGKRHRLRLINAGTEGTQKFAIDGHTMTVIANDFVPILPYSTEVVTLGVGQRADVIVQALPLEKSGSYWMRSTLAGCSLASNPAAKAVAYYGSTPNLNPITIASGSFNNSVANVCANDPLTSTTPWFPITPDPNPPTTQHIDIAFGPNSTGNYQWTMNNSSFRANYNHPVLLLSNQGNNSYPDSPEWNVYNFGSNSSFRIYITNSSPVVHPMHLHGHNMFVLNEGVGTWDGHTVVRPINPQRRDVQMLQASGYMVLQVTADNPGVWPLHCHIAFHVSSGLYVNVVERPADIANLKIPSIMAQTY

purified protein [1] = substrate: CCn1c(=NN=c2sc3cc(S(=O)(=O)O)ccc3n2CC)sc2cc(S(=O)(=O)O)ccc21; assay: purified protein; format: biochemical, Sclerotinia sclerotiorum; details: 50 mM acetate pH 4, relative SD 5–20%
purified protein [2] = substrate: Cc1cc(-c2cc(C)c(N)c(C)c2)cc(C)c1N; assay: purified protein; format: biochemical, Sclerotinia sclerotiorum; details: 50 mM acetate pH 4, relative SD 5–20%

COc1ccccc1O [guaiacol]
UV-vis after desalting (blue laccase): purple with ABTS, red with guaiacol, orange with TMB

Cc1cc(-c2cc(C)c(N)c(C)c2)cc(C)c1N [TMB, 3,3’,5,5’-tetramethylbenzidine]
UV-vis after desalting (blue laccase): purple with ABTS, red with guaiacol, orange with TMB

B1: yellow laccase (Sclerotinia sclerotiorum 1980 UF-70) (protein)
chain: T1 sequence (A7EM18 28-577)
notes: native, secreted, purified from culture medium; ~66 kDa; as-isolated yellow form, natural covalent phenolic adduct of the same protein as P1
Km (purified protein [1]): 14.1 µM | kcat (purified protein [1]): 5.7 s⁻¹ | Km (purified protein [2]): 2.70 µM | kcat (purified protein [2]): 3.1 s⁻¹
